Laboratory results: PMC2270275, “Thermal dependency of RAG1 self-association properties” (BMC Biochemistry, 2008)

Biological target: the molecule itself
Experiment: SEC-MALS; MALLS-SEC of purified GST-core RAG2 (0.01-0.03 mg), kept at 4°C before SEC; Superdex 200; 25 mM Tris pH 8.0, 150 mM KCl, 2 mM dithiothreitol; 40-200 nM in Peak 2

B1: GST-core RAG2 (domain or fragment, UniProt P21784 1-387, looked up)
chain: MSLQMVTVGHNIALIQPGFSLMNFDGQVFFFGQKGWPKRSCPTGVFHFDIKQNHLKLKPAIFSKDSCYLPPLRYPATCSYKGSIDSDKHQYIIHGGKTPNNELSDKIYIMSVACKNNKKVTFRCTEKDLVGDVPEPRYGHSIDVVYSRGKSMGVLFGGRSYMPSTQRTTEKWNSVADCLPHVFLIDFEFGCATSYILPELQDGLSFHVSIARNDTVYILGGHSLASNIRPANLYRIRVDLPLGTPAVNCTVLPGGISVSSAILTQTNNDEFVIVGGYQLENQKRMVCSLVSLGDNTIEISEMETPDWTSDIKHSKIWFGSNMGNGTIFLGIPGDNKQAMSEAFYFYTLRCSEEDLSEDQKIVSNSQTSTEDPGDSTPFEDSEEFCFS
notes: RAG2 core region; core RAG2 portion printed as 42.6 kDa; Predicted monomer mass 68.9 kDa; The authors put the dimeric state down to the GST moiety, which is known to dimerize; also called core RAG2 fused to glutathione S-transferase; GST-RAG2
stoichiometry N: 2
